B1: Wild-type RecA (RecA-wt) (natural protein, E. coli, UniProt P0A7G6 1-353, looked up)
chain: MAIDENKQKALAAALGQIEKQFGKGSIMRLGEDRSMDVETISTGSLSLDIALGAGGLPMGRIVEIYGPESSGKTTLTLQVIAAAQREGKTCAFIDAEHALDPIYARKLGVDIDNLLCSQPDTGEQALEICDALARSGAVDVIVVDSVAALTPKAEIEGEIGDSHMGLAARMMSQAMRKLAGNLKQSNTLLIFINQIRMKIGVMFGNPETTTGGNALKFYASVRLDIRRIGAVKEGENVVGSETRVKVVKNKIAAPFKQAEFQILYGEGINFYGELVDLGVKEKLIEKAGAWYSYKGEKIGQGKANATAWLKDNPETAKEIEKKVRELLLSNPNSTPDFSVDDSEGVAETNEDF
notes: wild-type RecA, Escherichia coli; source: purified as previously described (21,33)
B2: OL2 90-mer ssDNA (ssDNA)
DNA: AAATCAATCTAAAGTATATATGAGTAAACTTGGTCTGACAGTTACCAATGCTTAATCAGTGAGGCACCTATCTCAGCGATCTGTCTATTT

What was measured:
[1] = molecular target: the molecule itself; experiment: scanning-probe microscopy in dynamic force mode (DFM); RecA variant (0.2 μM RecA-wt or npRecA dimer, 0.8 μM npRecA monomer) incubated with linear pUC119 dsDNA (2.0 μM), ATPγS (0.5 mM), MgCl2 (10 mM), Tris-HCl pH 7.5, DTT, 30 min at 37°C; fixed with glutaraldehyde (0.2%) on mica; filament formation on DNA; also done with circular phage ssDNA
[2] = molecular target: npRecA monomer (UniProt P0A7G6 31-337, C117M;S118V;Q119R); experiment: EMSA; no nucleotide cofactor; EMSA: standard reaction buffer (composition not in material), 4.5 uM (nt) ssDNA or 9.0 uM dsDNA, agarose gel, no fixation; 6-MI: 25 mM Tris-HCl pH 7.5, 10 mM MgCl2, 1 mM DTT, 25 C, 3.0 uM DNA; DFM: 0.5 mM ATPgS, 10 mM MgCl2, glutaraldehyde fixation; conditions: protein: recombinant; label: FAM
[3] = molecular target: RecA-3mΔC (UniProt P0A7G6 2-337, C117M;S118V;Q119R); experiment: EMSA; 1.3 mM ATP; 'defective'; EMSA: standard reaction buffer (composition not in material), 4.5 uM (nt) ssDNA or 9.0 uM dsDNA, agarose gel, no fixation; 6-MI: 25 mM Tris-HCl pH 7.5, 10 mM MgCl2, 1 mM DTT, 25 C, 3.0 uM DNA; DFM: 0.5 mM ATPgS, 10 mM MgCl2, glutaraldehyde fixation; conditions: protein: recombinant; label: FAM
Chain of RecA-3mΔC (P0A7G6 2-337 C117M/S118V/Q119R): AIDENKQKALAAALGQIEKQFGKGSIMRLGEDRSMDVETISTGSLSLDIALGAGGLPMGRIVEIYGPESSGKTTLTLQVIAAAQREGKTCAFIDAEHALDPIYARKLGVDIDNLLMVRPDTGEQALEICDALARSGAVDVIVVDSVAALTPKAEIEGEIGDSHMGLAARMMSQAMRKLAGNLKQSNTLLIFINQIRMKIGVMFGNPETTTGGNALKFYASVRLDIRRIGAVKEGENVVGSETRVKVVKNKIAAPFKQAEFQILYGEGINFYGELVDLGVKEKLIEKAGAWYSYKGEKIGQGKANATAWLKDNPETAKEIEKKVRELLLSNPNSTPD

Chain of npRecA monomer (P0A7G6 31-337 C117M/S118V/Q119R): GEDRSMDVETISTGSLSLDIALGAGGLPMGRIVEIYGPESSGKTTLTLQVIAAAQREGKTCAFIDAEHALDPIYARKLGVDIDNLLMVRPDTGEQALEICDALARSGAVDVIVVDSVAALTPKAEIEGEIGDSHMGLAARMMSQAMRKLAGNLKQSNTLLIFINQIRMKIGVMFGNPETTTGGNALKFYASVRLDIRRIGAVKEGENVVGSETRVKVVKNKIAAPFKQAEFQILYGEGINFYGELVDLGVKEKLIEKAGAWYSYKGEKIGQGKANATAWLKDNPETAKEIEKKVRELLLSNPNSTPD

Row | Binder | binding result [1] | binding result [2] | binding result [3]
1 | B1 | binds |  | 
2 | B2 |  | no binding | no binding
